Test results: PMC3884668

Molecular target: T1, DIS3L2 (rDIS3L2, wild type) (Homo sapiens, UniProt Q8IYB7 1-885)
T1 sequence: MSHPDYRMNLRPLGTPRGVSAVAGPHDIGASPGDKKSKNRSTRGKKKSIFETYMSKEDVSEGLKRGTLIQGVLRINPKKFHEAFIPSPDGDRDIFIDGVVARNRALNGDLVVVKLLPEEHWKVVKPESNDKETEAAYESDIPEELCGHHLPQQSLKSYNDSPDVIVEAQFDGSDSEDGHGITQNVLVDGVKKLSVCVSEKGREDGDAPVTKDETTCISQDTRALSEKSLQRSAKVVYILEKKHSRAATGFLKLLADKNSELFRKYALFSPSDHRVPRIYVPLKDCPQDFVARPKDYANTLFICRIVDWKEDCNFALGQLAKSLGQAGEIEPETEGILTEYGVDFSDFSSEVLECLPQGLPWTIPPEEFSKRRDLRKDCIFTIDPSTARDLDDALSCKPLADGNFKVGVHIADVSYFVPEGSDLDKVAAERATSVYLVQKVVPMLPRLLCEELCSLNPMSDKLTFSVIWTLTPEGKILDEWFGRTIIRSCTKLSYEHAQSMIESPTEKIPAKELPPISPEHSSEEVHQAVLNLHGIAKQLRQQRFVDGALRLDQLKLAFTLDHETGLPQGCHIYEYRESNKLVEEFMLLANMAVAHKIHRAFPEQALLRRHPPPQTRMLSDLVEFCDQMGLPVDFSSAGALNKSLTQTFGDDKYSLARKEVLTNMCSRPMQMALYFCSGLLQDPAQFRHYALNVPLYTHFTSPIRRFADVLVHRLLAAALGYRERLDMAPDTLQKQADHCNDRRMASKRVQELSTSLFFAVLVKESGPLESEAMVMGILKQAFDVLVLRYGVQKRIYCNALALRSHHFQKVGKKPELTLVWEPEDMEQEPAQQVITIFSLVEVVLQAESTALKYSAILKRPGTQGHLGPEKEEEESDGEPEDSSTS
Test: EMSA

Q: Does UUUUUUUUUUUUUUUUUUUUUUUUUUUUUU (ssRNA) [U30 RNA] bind?
A: Result: binds
